The text below walks through data of the supplement of paper PMC12764529.

± gives the half width of the 95% confidence interval.

Series [1] can be described thus: folding stability dG unfold from trypsin proteolysis; higher = more stable. In a few lines: (§1)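 Only designs with AlphaFold2 dimer inter-PAE above 15 were retained; each was a mini-protein under 80 residues with no cysteine, in a PA-tagged cDNA display construct. After digestion with trypsin and chymotrypsin and sequencing, K50 was inferred by Bayesian fitting of counts, and unfolding free energy was derived per protease or combined against a sequence-predicted unfolded-state K50 and a shared folded-state K50.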

The nature of series [2]: folding stability dG unfold from chymotrypsin proteolysis; higher = more stable. In outline: as §1
A short description of series [3]: folding stability dG unfold (combined trypsin and chymotrypsin); higher = more stable. In outline:
as §1

For the sequence “SAGGSAGMPSVTPVTVQMKGSREEAEAVAEELIEELRAKDPSVKVEAVEFSELPDGTYRVTITVTNSAGGSA [r15_718_JUSTAS]”, the entries for the “folding stability dG unfold” value in series [1], in series [2] and in series [3] were 3.71 ± 0.12 kcal/mol, 3.36 ± 0.057 kcal/mol and 3.49 ± 0.054 kcal/mol, respectively.

Regarding “SAGGSAGMTPVSEAVVPGPNVTTLTTYRDPSSSALITPVTTTPPDGVPVTTTTLDLGSSTVTLSTTSAGGSA [r15_993_JUSTAS]”, the “folding stability dG unfold” value in series [1] stood at 1.06 ± 0.053 kcal/mol; in series [2], 0.583 ± 0.21 kcal/mol; in series [3], 0.97 ± 0.082 kcal/mol.

As for “SAGGSAGNPKPVVLEVEVVLDIPPENPDVLRAQAEAVARALAKPGLRVEVLDYDPDKAAFTIRITGSAGGSA [r15_563_TrMRF]”, the results for the “folding stability dG unfold” value in series [1], in series [2] and in series [3] were 1.71 ± 0.039 kcal/mol, 1.84 ± 0.064 kcal/mol and 1.89 ± 0.077 kcal/mol, respectively.

Turning to “SAGGSAGPALEIAKALTELYGAEEVTILDVHPDGYVHLHVRAVDYDDGEPVERELDVIFPIAPDDGSAGGSA [r15_646_TrMRF]”, the “folding stability dG unfold” value in series [1] was 0.164 ± 0.06 kcal/mol; in series [2], 1.52 ± 0.037 kcal/mol; in series [3] it was 1.18 ± 0.11 kcal/mol.

For the sequence “SAGGSAGPDPKNKKIKVKVETFYLEDFGLKVEKIYIEGTGKPLLVFYFPDGSKLIINEDGTVKLIESAGGSA [r15_617_TrMRF]”, the “folding stability dG unfold” value in series [1] is 1.79 ± 0.35 kcal/mol; in series [2] it was 3.33 ± 0.14 kcal/mol; in series [3], 2.89 ± 0.23 kcal/mol.

As for “SAGGSAGPLERKVIVRTAPYTSPEEGEAYAEETKLAIASKLPESEKVTVEVTWDPETNTVTATIVSSAGGSA [r15_981_JUSTAS]”, the results for the “folding stability dG unfold” value in series [1], in series [2] and in series [3] were -0.491 ± 0.28 kcal/mol, 1.14 ± 0.092 kcal/mol and 0.722 ± 0.16 kcal/mol, respectively.

Regarding “SAGGSAGPMSVKEYEFEAVVPPGEEEAWVEEYIKKEFKSKIVKIEVKREKLPDGTYRVPVKITVKESAGGSA [r15_138_JUSTAS]”, the “folding stability dG unfold” value came to 0.433 ± 0.029 kcal/mol in series [1], 0.998 ± 0.12 kcal/mol in series [2] and 0.775 ± 0.079 kcal/mol in series [3].

As to “SAGGSAGPSSKPIPLYVLFLEVTKPGGEKLPLVKLVKSPEEALKIAEEIASKGYEVKLVLAPASEISAGGSA [r15_906_TrMRF]”, the results for the “folding stability dG unfold” value in series [1], in series [2] and in series [3] were 2.74 ± 0.081 kcal/mol, 2.92 ± 0.07 kcal/mol and 2.88 ± 0.084 kcal/mol, respectively.

On to “SAGGSAGSGFEEEAAAAFAASAGAMTLTVVEREPDSYTVATVTRTPGTGAPTVTVTTLSPETLAAASAGGSA [r15_156_JUSTAS]”, for which the “folding stability dG unfold” value was determined as 0.904 ± 0.048 kcal/mol in series [1], 0.425 ± 0.13 kcal/mol in series [2] and 0.701 ± 0.12 kcal/mol in series [3].

As for “SAGGSAGVLEAVVFNPETGTFSVIPAAVLEKAFAANPADTELTFTLKDKPVKVFVFPGPGLAVVTGSAGGSA [r15_350_TrMRF]”, the “folding stability dG unfold” value came to 1.14 ± 0.018 kcal/mol in series [1], 1.56 ± 0.061 kcal/mol in series [2] and 1.45 ± 0.053 kcal/mol in series [3].

Turning to “SAGGSAGVPPGGRVRVLVYNPLTGEVREVELPVGSLEEFLRGANLPAPLPDGRPAPVVVEILEVEPSAGGSA [r15_797_TrMRF]”, the results for the “folding stability dG unfold” value in series [1], in series [2] and in series [3] were 1.77 ± 0.14 kcal/mol, 3.11 ± 0.081 kcal/mol and 2.64 ± 0.36 kcal/mol, respectively.

“SAGGSAIDPRLLKLPKVKVEILSVEPVTGEDDKPFFVAKVKTDLEPGFYAYIILDPETGKIVKVFDSAGGSA [r15_66_TrMRF]”: the “folding stability dG unfold” value in series [1] was determined as 1.19 ± 0.038 kcal/mol; in series [2] it was 1.57 ± 0.093 kcal/mol; in series [3] it was 1.4 ± 0.072 kcal/mol.

Turning to “SAGGSAIEIEPAPDNVLVVTADLPPNVPAEKLVEALKDLIPDVEFETSSSADGRHVIVLRLPPDVFSAGGSA [r15_1047_TrMRF]”, the “folding stability dG unfold” value was 1.05 ± 0.044 kcal/mol in series [1], 0.961 ± 0.06 kcal/mol in series [2] and 1.05 ± 0.07 kcal/mol in series [3].

As to “SAGGSAIENQFLRITMYHGNKPHTWTFPIKKVDIDPEDGNIEVYFPPEFRELFGGPMRITDIEFPPSAGGSA [r15_710_TrROS]”, the “folding stability dG unfold” value in series [1] came out at 1.14 ± 0.019 kcal/mol; in series [2], 1.63 ± 0.071 kcal/mol; in series [3], 1.46 ± 0.067 kcal/mol.

In the case of “SAGGSAIKLPSGVKIEFKKTEDGKYIVRVTLPDGKPIELEFEGDPEGPNNITPEEINDAILEKIKSSAGGSA [r15_780_TrMRF]”, the entries for the “folding stability dG unfold” value in series [1], in series [2] and in series [3] were 2.67 ± 0.11 kcal/mol, 3.23 ± 0.056 kcal/mol and 3.06 ± 0.081 kcal/mol, respectively.

Regarding “SAGGSAIVIPVKSWEEFVEALKNAPASVEIIADLPDGNVIKAKIDPSKGPKIIITEVFPVPPELAGSAGGSA [r15_577_TrMRF]”, the results for the “folding stability dG unfold” value in series [1], in series [2] and in series [3] were 0.515 ± 0.036 kcal/mol, 1.06 ± 0.053 kcal/mol and 0.859 ± 0.11 kcal/mol, respectively.

As for “SAGGSAIWIPADEIRELAKEPGLEVEKEPQPDGMLHFTIKNPKNGKRITIVVWDPENGWWHIMPIPSAGGSA [r15_442_TrROS]”, the “folding stability dG unfold” value in series [1] was 0.947 ± 0.019 kcal/mol; in series [2], 0.854 ± 0.098 kcal/mol; in series [3] it was 0.928 ± 0.083 kcal/mol.

Regarding “SAGGSAKEALVKAVEELFKKLFPDEPIEVLKVDPEKGRITIKVNSDEARKALEKALKELGIEVDLDSAGGSA [r15_196_TrMRF]”, the “folding stability dG unfold” value worked out at 3.75 ± 0.11 kcal/mol in series [1], 2.91 ± 0.092 kcal/mol in series [2] and 3.34 ± 0.11 kcal/mol in series [3].

As to “SAGGSAKGKKTRTITIMAPFDNKEEAREQAEEIADNIMNNLPDDMKIKVEVSWNPEDNYVMATIRISAGGSA [r15_981_TrROS]”, the “folding stability dG unfold” value in series [1] turned out to be 0.404 ± 0.3 kcal/mol; in series [2], 0.842 ± 0.11 kcal/mol; in series [3], 0.707 ± 0.25 kcal/mol.

In the case of “SAGGSAKIEEIASLPAEEIAEAFGLTVISATVERFEDGTVVLTVEIAPPLGPPIRVTFVFGVDPEKSAGGSA [r15_805_TrMRF]”, the “folding stability dG unfold” value in series [1] was found to be 2.21 ± 0.045 kcal/mol; in series [2] it was 4.19 ± 0.061 kcal/mol; in series [3], 3.75 ± 0.058 kcal/mol.

Regarding “SAGGSAKIEIERIEPRPVLVPRPDGSLVPVPEVEVELRIEGDPEKMEEEERKKIEALAEEIAKELGSAGGSA [r2_40_TrMRF]”, the “folding stability dG unfold” value is -0.508 ± 0.16 kcal/mol in series [1], 0.736 ± 0.056 kcal/mol in series [2] and 0.428 ± 0.16 kcal/mol in series [3].

With “SAGGSAKIEITIFIPGMSEEEVKKLAEELAEELRKKGLSDEEIKEIKIKVYKVPVYKTEDGKLVKVSAGGSA [r15_684_TrROS_Hall]”, the “folding stability dG unfold” value in series [1] was 0.884 ± 0.046 kcal/mol; in series [2], 1.82 ± 0.059 kcal/mol; in series [3] it was 1.44 ± 0.089 kcal/mol.

Regarding “SAGGSAKITIEKVDDQYRITVTVPVYDENGNKVPLTFDFVYPSDDPDAFLDDVIRRIRELNPDLEKSAGGSA [r15_1050_TrMRF]”, the entries for the “folding stability dG unfold” value in series [1], in series [2] and in series [3] were 2.3 ± 0.073 kcal/mol, 3.01 ± 0.084 kcal/mol and 2.77 ± 0.1 kcal/mol, respectively.

With “SAGGSAKITIKPGETITITIKLENGETVEIRMRVEELPDGTYKITMEITYPDGSKIEMELTLKIKPSAGGSA [r15_476_TrROS_Hall]”, the results for the “folding stability dG unfold” value in series [1], in series [2] and in series [3] were 2.58 ± 0.21 kcal/mol, 4.43 ± 0.18 kcal/mol and 4.05 ± 0.44 kcal/mol, respectively.

Take “SAGGSAKKIKIFSLEELRERFPDLSEEELKKRAEELAKELAERLKEEGKPVEVEIVEVKLPEEEKKSAGGSA [r15_287_TrROS_Hall]”: the “folding stability dG unfold” value in series [1] was 0.382 ± 0.13 kcal/mol; in series [2] it was 2.107 ± 0.015 kcal/mol; in series [3] it was 1.69 ± 0.094 kcal/mol.

In the case of “SAGGSAKKKIKIKVKNKDGSVYELEFDEENGIVKITYKDGKKEELSVEELKKLPLPKNITEVEIVPSAGGSA [r15_1043_TrROS_Hall]”, the “folding stability dG unfold” value in series [1] turned out to be 1.57 ± 0.043 kcal/mol; in series [2], 2.59 ± 0.036 kcal/mol; in series [3], 2.25 ± 0.059 kcal/mol.
